Test results as given in patent publication US20220332759A1, “TARGETED PULMONARY DELIVERY COMPOSITIONS AND METHODS USING SAME” (Rutgers, The State University of New Jersey, priority 2019, published 2022).
Ends that are not written are not given here.

Assays:
[1] = target: T1, human recombinant α3β1 integrin (Homo sapiens, UniProt P05556+P26006); test: Phage binding assay to immobilized recombinant proteins; conditions: increasing molar concentrations, relative to unrelated control peptide
T1 construct: purchased R&D Systems
Procedure: Phage binding to recombinant proteins (α3β1, α6β1, α6β4, NRP-1 and SDC-1) and BSA (Sigma) were performed as described (Cardó-Vila, et al., 2008, PLoS One 3:e3452). Briefly, 100 ng of each of the indicated proteins dissolved in 50 μL PBS were immobilized in microtiter wells overnight (ON) at 4° C. […] After 2 h at RT, wells were gently washed 10 times with PBS, and phage was recovered by host bacterial infection and represented as “Relative TU” as an empirical measure of the biological replicates and controls when compared to one another as described (Arap, W. et al., Nat. Med., 2002, 8:121-127; Cardó-Vila, et al., 2008, PLoS One 3:e3452). Human recombinant proteins α3β1, α6β1, α6β4, NRP-1 and SDC-1 were all commercially obtained from R&D Systems. Recombinant GST and […]-GST were produced in E. coli transformed with the pGEX4T-1 plasmid (Amersham, GE Healthcare) and purified with standard protocols. All synthetic peptides were custom manufactured by Merrifield synthesis and quality-controlled to the necessary specifications (Biomatik and PolyPeptide Laboratories).

A549 cell monolayer = test: Cellular barrier permeability (Transwell) assay and empirical model of phage transport; type: in vitro ADME, human; conditions: A549 cells, different concentrations, 1 h
Description: To investigate the transport of phage particles across the cellular monolayer, data from the in vitro Transwell assays (FIG. 3E) was used to quantify the parameters of an empirical mathematical model of phage accumulation in the bottom chamber (Equation 1). The mass of phage particles [N(t), measured experimentally as TU] transported across the cellular barrier at time t, was represented by Equation (Eq. 1), as follows:
where, Ns represent the mass of phage particles (TU) in the bottom chamber at saturation; k is the transport rate constant, the inverse of which gives the characteristic time (τ=1/k) of the transport process. The first derivative of Equation 1
provides the time-dependent transport rate of phage particles across the in vitro cellular barrier. Least squares fitting of the model to the experimental data was performed in MATLAB. The transport rate decays exponentially over time at rate k, and its maximal value can be determined at time t=0 as […]

[2] = target: T2, mouse α3β1 integrin expressed on the plasma membrane of AT1 and AT2 alveolar epithelial cells and club cells (mouse, UniProt Q62470 33-1053; P09055 21-798); test: TU count of phage recovered from flow-sorted mouse lung cells after aerosol administration
T2 construct: whole, on cells; Target on lung cells of BALB/c mice after aerosol administration of phage; also called α3β1 integrins in lung tissue; α3β1 integrin in vivo
Procedure: Cells were sorted in an iCyt sy3200 (Sony) cell sorter previously calibrated with compensation beads (UltraComp eBeads, Thermo Scientific). AT1-, AT2-enriched cell populations and macrophages were centrifuged, and the number of phage particles per cell type was determined by TU count.
To further evaluate the bioavailability of [sequence]-displaying phage particles after aerosol administration, the binding capabilities of the phage particles to specific lung cells were determined by flow cytometry. […] Specific cell populations of the lung were isolated and flow cytometry sorted in three main cell populations (FIG. 5A): AT1-enriched population (EPCAM⁺, CD45⁻, CD31⁻, T1α^high); AT2-enriched population (EPCAM⁺, CD45⁻, CD31⁻, Tα^low) and mononuclear phagocytes (EPCAM⁻, CD45⁺, CD31⁻, F4/80⁺). The number of either targeted or control phage particles bound to each cell population was determined by TU counting after infection with a host bacterium.

[3] = target: T3, human recombinant α3β1 integrin (human, UniProt P26006 33-991; P05556 21-728); test: competition of phage binding to immobilised α3β1 (FIG. 3B)
T3 construct: Bought protein, 100 ng immobilised in microtiter wells; also called α3β1 integrins
T3 sequence (P26006 33-991 limits assumed, chain 1 of 2): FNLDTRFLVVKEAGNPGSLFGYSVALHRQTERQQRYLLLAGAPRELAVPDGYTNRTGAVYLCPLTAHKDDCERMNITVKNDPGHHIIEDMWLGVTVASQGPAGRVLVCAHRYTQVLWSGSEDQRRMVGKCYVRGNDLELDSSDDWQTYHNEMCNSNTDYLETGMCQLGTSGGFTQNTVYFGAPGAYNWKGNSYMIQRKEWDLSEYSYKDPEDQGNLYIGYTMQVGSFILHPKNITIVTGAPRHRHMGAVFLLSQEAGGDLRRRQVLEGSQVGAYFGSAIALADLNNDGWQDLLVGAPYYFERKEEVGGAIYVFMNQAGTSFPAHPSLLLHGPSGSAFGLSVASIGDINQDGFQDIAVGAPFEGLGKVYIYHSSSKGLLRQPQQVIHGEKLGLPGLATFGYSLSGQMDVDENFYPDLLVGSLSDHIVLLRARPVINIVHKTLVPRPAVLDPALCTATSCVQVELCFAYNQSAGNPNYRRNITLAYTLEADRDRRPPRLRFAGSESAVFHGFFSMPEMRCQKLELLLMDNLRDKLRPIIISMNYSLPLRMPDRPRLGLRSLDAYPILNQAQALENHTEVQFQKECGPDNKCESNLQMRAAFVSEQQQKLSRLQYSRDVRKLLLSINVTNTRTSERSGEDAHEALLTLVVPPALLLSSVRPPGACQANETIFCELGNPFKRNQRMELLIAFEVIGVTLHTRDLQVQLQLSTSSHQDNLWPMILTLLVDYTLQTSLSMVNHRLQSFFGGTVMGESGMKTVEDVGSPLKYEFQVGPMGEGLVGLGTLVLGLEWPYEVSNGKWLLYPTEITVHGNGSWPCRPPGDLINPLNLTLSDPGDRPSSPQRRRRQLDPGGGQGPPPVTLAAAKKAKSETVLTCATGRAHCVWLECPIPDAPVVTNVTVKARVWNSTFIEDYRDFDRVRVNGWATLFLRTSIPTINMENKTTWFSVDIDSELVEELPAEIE
T3 sequence (P05556 21-728 limits assumed, chain 2 of 2): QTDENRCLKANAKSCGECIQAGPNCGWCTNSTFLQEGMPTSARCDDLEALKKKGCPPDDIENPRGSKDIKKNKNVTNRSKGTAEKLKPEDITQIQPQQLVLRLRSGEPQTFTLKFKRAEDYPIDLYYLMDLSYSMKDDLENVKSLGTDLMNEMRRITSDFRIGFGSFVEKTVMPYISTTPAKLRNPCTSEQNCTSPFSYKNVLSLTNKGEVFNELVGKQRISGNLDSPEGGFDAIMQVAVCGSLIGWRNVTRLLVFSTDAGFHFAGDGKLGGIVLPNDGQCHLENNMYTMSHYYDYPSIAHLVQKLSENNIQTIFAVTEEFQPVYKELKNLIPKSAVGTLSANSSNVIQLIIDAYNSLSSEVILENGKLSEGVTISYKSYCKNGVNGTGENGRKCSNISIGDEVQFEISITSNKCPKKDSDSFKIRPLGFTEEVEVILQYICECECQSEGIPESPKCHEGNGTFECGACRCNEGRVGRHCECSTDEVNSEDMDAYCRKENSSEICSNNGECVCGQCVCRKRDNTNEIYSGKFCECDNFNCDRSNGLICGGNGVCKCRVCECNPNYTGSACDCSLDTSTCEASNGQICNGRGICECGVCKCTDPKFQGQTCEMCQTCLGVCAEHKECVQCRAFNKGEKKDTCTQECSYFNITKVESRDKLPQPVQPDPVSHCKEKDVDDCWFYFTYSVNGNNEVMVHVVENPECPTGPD

T1 sequence (P26006 33-991 limits assumed): as the sequence (P26006 33-991 limits assumed, chain 1 of 2) above
T1 sequence (P05556 21-728 limits assumed): as the sequence (P05556 21-728 limits assumed, chain 2 of 2) above
T2 sequence (Q62470 33-1053, chain 1 of 2): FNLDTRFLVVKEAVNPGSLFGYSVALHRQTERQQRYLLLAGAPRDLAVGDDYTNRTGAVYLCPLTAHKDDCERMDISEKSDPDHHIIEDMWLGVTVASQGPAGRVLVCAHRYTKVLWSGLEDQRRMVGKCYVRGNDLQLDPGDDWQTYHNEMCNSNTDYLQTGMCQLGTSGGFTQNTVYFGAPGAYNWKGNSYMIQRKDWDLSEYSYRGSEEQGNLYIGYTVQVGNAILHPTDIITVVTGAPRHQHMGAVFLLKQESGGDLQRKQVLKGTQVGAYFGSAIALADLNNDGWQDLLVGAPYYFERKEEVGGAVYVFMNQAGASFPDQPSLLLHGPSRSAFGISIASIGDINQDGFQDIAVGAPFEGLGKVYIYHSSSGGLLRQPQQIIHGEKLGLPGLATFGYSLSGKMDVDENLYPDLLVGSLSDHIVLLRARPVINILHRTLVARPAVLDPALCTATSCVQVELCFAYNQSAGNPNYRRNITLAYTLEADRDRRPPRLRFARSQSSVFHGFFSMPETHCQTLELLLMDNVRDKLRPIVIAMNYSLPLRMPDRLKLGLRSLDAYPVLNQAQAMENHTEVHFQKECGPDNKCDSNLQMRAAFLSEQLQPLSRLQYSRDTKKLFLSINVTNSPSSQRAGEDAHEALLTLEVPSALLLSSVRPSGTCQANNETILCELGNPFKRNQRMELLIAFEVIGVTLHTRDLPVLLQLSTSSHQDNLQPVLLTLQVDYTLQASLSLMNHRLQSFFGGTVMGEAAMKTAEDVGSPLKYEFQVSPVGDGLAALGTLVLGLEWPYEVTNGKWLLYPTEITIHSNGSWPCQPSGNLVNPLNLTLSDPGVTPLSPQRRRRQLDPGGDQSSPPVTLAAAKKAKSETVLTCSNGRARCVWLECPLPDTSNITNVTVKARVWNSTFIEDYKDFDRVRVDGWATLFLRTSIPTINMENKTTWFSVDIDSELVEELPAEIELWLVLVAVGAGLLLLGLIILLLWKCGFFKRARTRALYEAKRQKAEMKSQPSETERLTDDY
T2 sequence (P09055 21-798, chain 2 of 2): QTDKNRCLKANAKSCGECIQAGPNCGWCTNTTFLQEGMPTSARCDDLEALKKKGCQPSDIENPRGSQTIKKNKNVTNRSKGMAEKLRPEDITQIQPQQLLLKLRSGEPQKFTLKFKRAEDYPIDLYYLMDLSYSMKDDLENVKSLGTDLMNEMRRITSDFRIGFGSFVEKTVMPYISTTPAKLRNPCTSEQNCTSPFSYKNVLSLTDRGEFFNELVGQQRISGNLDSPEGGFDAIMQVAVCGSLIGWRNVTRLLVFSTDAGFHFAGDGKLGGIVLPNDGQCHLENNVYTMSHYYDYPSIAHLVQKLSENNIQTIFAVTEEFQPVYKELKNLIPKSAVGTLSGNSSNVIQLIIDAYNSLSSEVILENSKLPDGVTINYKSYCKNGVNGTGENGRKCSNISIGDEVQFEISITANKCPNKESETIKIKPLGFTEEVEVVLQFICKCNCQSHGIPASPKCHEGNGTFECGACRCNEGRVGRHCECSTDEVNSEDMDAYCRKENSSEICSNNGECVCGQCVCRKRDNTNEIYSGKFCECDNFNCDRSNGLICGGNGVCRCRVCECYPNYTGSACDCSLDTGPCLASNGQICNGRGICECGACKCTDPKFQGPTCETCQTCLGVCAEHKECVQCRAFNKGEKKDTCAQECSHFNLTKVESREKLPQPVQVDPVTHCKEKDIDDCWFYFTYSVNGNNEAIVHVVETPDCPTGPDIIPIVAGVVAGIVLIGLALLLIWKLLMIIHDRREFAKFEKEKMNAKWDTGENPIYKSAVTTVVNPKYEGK

Molecule: CAKSMGDIVC [index ligand transport peptide; soluble synthetic peptide produced through Merrifield synthesis]
- inhibition of CAKSMGDIVC-displaying phage binding to α3β1 integrin [1]: Concentration-dependent inhibition

Molecule: CAKSMGDIVC-GST: recombinant CAKSMGDIVC-GST produced in E. coli transformed with the pGEX4T-1 plasmid (CAKSMGDIVC-{GST}; cysteine pairing not given here)
- competition of CAKSMGDIVC-displaying phage transport in Transwell (A549 cell monolayer): concentration-dependent ligand-receptor specificity

B1: targeted CAKSMGDIVC-displaying phage particles (other, not shown: large carriers)
chain: CAKSMGDIVC
modifications: not fully specified (bridges); cysteine pairing not given here; also: displayed on phage pIII
notes: Whole phage particle; also called phage clone 2
- fold binding to AT1-enriched population against AT2-enriched cells [2]: ~2 fold

B2: synthetic CAKSMGDIVC peptide (peptide)
peptide: CAKSMGDIVC
notes: Made by Merrifield synthesis; also called cognate synthetic peptide
- binding result [3]: binds
